The source of these data is US20250388666A1 (BRIGHAM AND WOMEN S HOSPITAL, published 2025).

Sequences and labels used below:
T1: CEACAM1 (Sino Biological) (human, UniProt P13688 35-428, limits assumed)
T1 construct: may be the same as CEACAM1-HIS; also called hCEACAM1; biotinylated soluble CEACAM1
T1 sequence: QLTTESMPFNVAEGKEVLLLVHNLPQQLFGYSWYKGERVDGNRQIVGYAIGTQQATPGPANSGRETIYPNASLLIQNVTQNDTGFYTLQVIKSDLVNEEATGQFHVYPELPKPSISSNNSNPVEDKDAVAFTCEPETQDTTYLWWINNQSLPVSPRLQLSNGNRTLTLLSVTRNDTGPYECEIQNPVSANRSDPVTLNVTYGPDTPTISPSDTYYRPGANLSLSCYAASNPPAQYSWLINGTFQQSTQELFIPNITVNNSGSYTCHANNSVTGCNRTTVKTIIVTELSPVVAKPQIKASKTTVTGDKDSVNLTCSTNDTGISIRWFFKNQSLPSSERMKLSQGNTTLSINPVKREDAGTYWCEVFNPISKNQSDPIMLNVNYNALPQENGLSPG

B1: He3/L3 (antibody, IgG4, V domains shown)
VH: EVQLLESGGGLVQPGGSLRLSCAASGFSFSDYYLYWVRQAPGKGLEWVATISVGGGQTSYADSVKGRFTISRDNSKNTLYLQMNSLRAEDTAMYYCTRALTYGPAWLAYWGQGTLVTVSS
VL: DIVMTQSPDSLAVSLGERATINCKSSQSLLNSANQKNYLAWYQQKPGQPPKLLIYFASTRESGVPDRFSGSGSGTDFTLTISSLQAEDVAVYYCQSHFPFPFTFGGGTKVEIK
notes: IgG4 S241P, kappa
B2: He3/L6 (antibody, IgG4, V domains shown)
VH: EVQLLESGGGLVQPGGSLRLSCAASGFSFSDYYLYWVRQAPGKGLEWVATISVGGGQTSYADSVKGRFTISRDNSKNTLYLQMNSLRAEDTAMYYCTRALTYGPAWLAYWGQGTLVTVSS
VL: DIVMTQSPDSLAVSLGERATINCKSSQSLLNSANQKNYLAWYQQKPGQPPKLLIYFASTRESGVPDRFSGSGSGTDFTLTISSLQAEDVAVYYCQSHYPFSFTFGGGTKVEIK
notes: IgG4 S241P, kappa
B3: He3/L18 (antibody, IgG4, V domains shown)
VH: EVQLLESGGGLVQPGGSLRLSCAASGFSFSDYYLYWVRQAPGKGLEWVATISVGGGQTSYADSVKGRFTISRDNSKNTLYLQMNSLRAEDTAMYYCTRALTYGPAWLAYWGQGTLVTVSS
VL: DIVMTQSPDSLAVSLGERATINCKSSQSLLNSANQKNYLAWYQQKPGQPPKLLIYFASTRESGVPDRFSGSGSGTDFTLTISSLQAEDVAVYYCQSHFPYPFTFGGGTKVEIK
notes: IgG4 S241P, kappa
B4: He4/L5 (antibody, IgG4, V domains shown)
VH: EVQLLESGGGLVQPGGSLRLSCAASGFSFSDYYLYWVRQAPGKGLEWVATISVGGGQTSYADSVKGRFTISRDNSKNTLYLQMNSLRAEDTAMYYCTRALYYGPAWFAYWGQGTLVTVSS
VL: DIVMTQSPDSLAVSLGERATINCKSSQSLLNSANQKNYLAWYQQKPGQPPKLLIYFASTRESGVPDRFSGSGSGTDFTLTISSLQAEDVAVYYCQSHYPFAFTFGGGTKVEIK
notes: IgG4 S241P, kappa
B5: He3/L17 (antibody, IgG4, V domains shown)
VH: EVQLLESGGGLVQPGGSLRLSCAASGFSFSDYYLYWVRQAPGKGLEWVATISVGGGQTSYADSVKGRFTISRDNSKNTLYLQMNSLRAEDTAMYYCTRALTYGPAWLAYWGQGTLVTVSS
VL: DIVMTQSPDSLAVSLGERATINCKSSQSLLNSANQKNYLAWYQQKPGQPPKLLIYFASTRESGVPDRFSGSGSGTDFTLTISSLQAEDVAVYYCQSHYPYPYTFGGGTKVEIK
notes: IgG4 S241P, kappa
B6: He3/L4#2 (antibody, IgG4, V domains shown)
VH: EVQLLESGGGLVQPGGSLRLSCAASGFSFSDYYLYWVRQAPGKGLEWVATISVGGGQTSYADSVKGRFTISRDNSKNTLYLQMNSLRAEDTAMYYCTRALTYGPAWLAYWGQGTLVTVSS
VL: DIVMTQSPDSLAVSLGERATINCKSSQSLLNSANQKNYLAWYQQKPGQPPKLLIYFASTRESGVPDRFSGSGSGTDFTLTISSLQAEDVAVYYCQSHYPYPYTFGGGTKVEIK
notes: IgG4 S241P, kappa
B7: He4/L4#2 (antibody, IgG4, V domains shown)
VH: EVQLLESGGGLVQPGGSLRLSCAASGFSFSDYYLYWVRQAPGKGLEWVATISVGGGQTSYADSVKGRFTISRDNSKNTLYLQMNSLRAEDTAMYYCTRALYYGPAWFAYWGQGTLVTVSS
VL: DIVMTQSPDSLAVSLGERATINCKSSQSLLNSANQKNYLAWYQQKPGQPPKLLIYFASTRESGVPDRFSGSGSGTDFTLTISSLQAEDVAVYYCQSHYPYPYTFGGGTKVEIK
notes: IgG4 S241P, kappa
B8: He4/L4 #1 (antibody, IgG4, V domains shown)
VH: EVQLLESGGGLVQPGGSLRLSCAASGFSFSDYYLYWVRQAPGKGLEWVATISVGGGQTSYADSVKGRFTISRDNSKNTLYLQMNSLRAEDTAMYYCTRALYYGPAWFAYWGQGTLVTVSS
VL: DIVMTQSPDSLAVSLGERATINCKSSQSLLNSANQKNYLAWYQQKPGQPPKLLIYFASTRESGVPDRFSGSGSGTDFTLTISSLQAEDVAVYYCQSHFPYYYTFGGGTKVEIK
notes: IgG4 S241P, kappa
B9: He3/Parent VL (antibody, IgG4, V domains shown)
VH: EVQLLESGGGLVQPGGSLRLSCAASGFSFSDYYLYWVRQAPGKGLEWVATISVGGGQTSYADSVKGRFTISRDNSKNTLYLQMNSLRAEDTAMYYCTRALTYGPAWLAYWGQGTLVTVSS
VL: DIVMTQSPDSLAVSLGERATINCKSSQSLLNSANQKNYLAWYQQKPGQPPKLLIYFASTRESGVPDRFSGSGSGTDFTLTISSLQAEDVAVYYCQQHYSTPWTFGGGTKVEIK
notes: IgG4 S241P, kappa
B10: He3/L5 (antibody, IgG4, V domains shown)
VH: EVQLLESGGGLVQPGGSLRLSCAASGFSFSDYYLYWVRQAPGKGLEWVATISVGGGQTSYADSVKGRFTISRDNSKNTLYLQMNSLRAEDTAMYYCTRALTYGPAWLAYWGQGTLVTVSS
VL: DIVMTQSPDSLAVSLGERATINCKSSQSLLNSANQKNYLAWYQQKPGQPPKLLIYFASTRESGVPDRFSGSGSGTDFTLTISSLQAEDVAVYYCQSHYPFAFTFGGGTKVEIK
notes: IgG4 S241P, kappa
B11: He3/L16 (antibody, IgG4, V domains shown)
VH: EVQLLESGGGLVQPGGSLRLSCAASGFSFSDYYLYWVRQAPGKGLEWVATISVGGGQTSYADSVKGRFTISRDNSKNTLYLQMNSLRAEDTAMYYCTRALTYGPAWLAYWGQGTLVTVSS
VL: DIVMTQSPDSLAVSLGERATINCKSSQSLLNSANQKNYLAWYQQKPGQPPKLLIYFASTRESGVPDRFSGSGSGTDFTLTISSLQAEDVAVYYCQSHYPYPFTFGGGTKVEIK
notes: IgG4 S241P, kappa
B12: He3/L4 #1 (antibody, IgG4, V domains shown)
VH: EVQLLESGGGLVQPGGSLRLSCAASGFSFSDYYLYWVRQAPGKGLEWVATISVGGGQTSYADSVKGRFTISRDNSKNTLYLQMNSLRAEDTAMYYCTRALTYGPAWLAYWGQGTLVTVSS
VL: DIVMTQSPDSLAVSLGERATINCKSSQSLLNSANQKNYLAWYQQKPGQPPKLLIYFASTRESGVPDRFSGSGSGTDFTLTISSLQAEDVAVYYCQSHFPYYYTFGGGTKVEIK
notes: IgG4 S241P, kappa
B13: He4/L2 (antibody, IgG4, V domains shown)
VH: EVQLLESGGGLVQPGGSLRLSCAASGFSFSDYYLYWVRQAPGKGLEWVATISVGGGQTSYADSVKGRFTISRDNSKNTLYLQMNSLRAEDTAMYYCTRALYYGPAWFAYWGQGTLVTVSS
VL: DIVMTQSPDSLAVSLGERATINCKSSQSLLNSANQKNYLAWYQQKPGQPPKLLIYFASTRESGVPDRFSGSGSGTDFTLTISSLQAEDVAVYYCQSHYPFPYTFGGGTKVEIK
notes: IgG4 S241P, kappa
B14: He4/L3 (antibody, IgG4, V domains shown)
VH: EVQLLESGGGLVQPGGSLRLSCAASGFSFSDYYLYWVRQAPGKGLEWVATISVGGGQTSYADSVKGRFTISRDNSKNTLYLQMNSLRAEDTAMYYCTRALYYGPAWFAYWGQGTLVTVSS
VL: DIVMTQSPDSLAVSLGERATINCKSSQSLLNSANQKNYLAWYQQKPGQPPKLLIYFASTRESGVPDRFSGSGSGTDFTLTISSLQAEDVAVYYCQSHFPFPFTFGGGTKVEIK
notes: IgG4 S241P, kappa
B15: He4/L1 (antibody, IgG4, V domains shown)
VH: EVQLLESGGGLVQPGGSLRLSCAASGFSFSDYYLYWVRQAPGKGLEWVATISVGGGQTSYADSVKGRFTISRDNSKNTLYLQMNSLRAEDTAMYYCTRALYYGPAWFAYWGQGTLVTVSS
VL: DIVMTQSPDSLAVSLGERATINCKSSQSLLNSANQKNYLAWYQQKPGQPPKLLIYFASTRESGVPDRFSGSGSGTDFTLTISSLQAEDVAVYYCQSHYPFYYTFGGGTKVEIK
notes: IgG4 S241P, kappa
B16: He3/L19 (antibody, IgG4, V domains shown)
VH: EVQLLESGGGLVQPGGSLRLSCAASGFSFSDYYLYWVRQAPGKGLEWVATISVGGGQTSYADSVKGRFTISRDNSKNTLYLQMNSLRAEDTAMYYCTRALTYGPAWLAYWGQGTLVTVSS
VL: DIVMTQSPDSLAVSLGERATINCKSSQSLLNSANQKNYLAWYQQKPGQPPKLLIYFASTRESGVPDRFSGSGSGTDFTLTISSLQAEDVAVYYCQSHIYPNFTFGGGTKVEIK
notes: IgG4 S241P, kappa

In general, Kd refers to the free concentration of one partner at which half of the binding sites on the other are occupied at equilibrium, for simple one-to-one binding. Higher therefore signals a looser complex.

This experiment has as its target T1, CEACAM1 (Sino Biological). The experiment is described as follows: SPR single-cycle. The method, then:
To assess the binding of the humanized affinity matured IgGs, single cycle kinetics analysis was performed on crude supernatants using a Biacore T200 running Biacore T200 Control Software V2.0.1 and Biacore T200 Evaluation Software V3.0 (Uppsala, Sweden). Antibodies were diluted in HBS-P+ (GE Healthcare) to a final concentration of […]. At the start of each cycle, antibodies were loaded onto Fc2, Fc3 and Fc4 of the Protein A chip (GE Healthcare). IgGs were captured at a flow rate of 10 μl/min to give an immobilization level (RL) of ˜100 RU (a level calculated to obtain an Rmax of ˜50-150 RU once the analyte is bound). The surface was then allowed to stabilize. Single cycle kinetics data was obtained with CEACAM1 as the analyte at a flow rate of […] to minimize any potential mass transfer effects. Multiple repeats with the parent (VH2 N56Q/Vκ4 S27(f)A) antibody were performed to check the stability of the surface and analyte over the kinetic cycles. The signal from the reference channel Fc1 (no antibody) was subtracted from that of Fc2, Fc3 and Fc4 to correct for differences in non-specific binding to the reference surface. A three point, two-fold dilution range from 25 nM to 100 nM CEACAM 1 without regeneration between each concentration was used. The signal from each antibody blank run (no CEACAM1) was subtracted to correct for differences in surface stability. The association phase for the three injections of increasing concentrations of CEACAM1 was monitored for 200 seconds each time and a single dissociation phase was measured for 300 seconds following the last injection of CEACAM1. Regeneration of the Protein A surface was conducted using two injections of 10 mM glycine-HCL pH 1.5 followed by a stabilization period of 240 seconds.
With B1, the Kd is 163 nM and the “fold better than Parent (KD)” value was determined as 0.98 fold.
The like results for B2 were, in that order, 93 nM and 1.72 fold.
The like results for B3 were, in that order, 82 nM and 1.94 fold.
For B4, the Kd came out at 68 nM and the “fold better than Parent (KD)” value was 2.36 fold.
The corresponding values for B5 are 83 nM and 1.91 fold.
The like results for B6 were, in that order, 130 nM and 4.24 fold.
B7: the Kd was found to be 127 nM and the “fold better than Parent (KD)” value was 4.34 fold.
With B8, binding was characterised by a dissociation constant (Kd) of 83 nM and the “fold better than Parent (KD)” value was 1.91 fold.
The corresponding values for B9 are 78 nM and 2.03 fold.
Take B10: the Kd stood at 95 nM and the “fold better than Parent (KD)” value worked out at 1.68 fold.
On to B11, for which the Kd was 72 nM and the “fold better than Parent (KD)” value worked out at 2.22 fold.
The corresponding values for B12 are 99 nM and 1.61 fold.
B13: binding was put at a Kd of 76 nM and the “fold better than Parent (KD)” value stood at 2.09 fold.
The corresponding values for B14 are 55 nM and 2.87 fold.
The like results for B15 were, in that order, 64 nM and 2.49 fold.
The corresponding values for B16 are 135 nM and 1.18 fold.
